Reference: patent US20260234247A1 (published 2026)

Assays:
[1] = molecular target: T1, human LILRB1 expressed on CHOK1 cells (CHOK1-hLILRB1) (human, UniProt Q8NHL6 24-650); assay: FACS binding to CHOK1-hLILRB1 cells
T1 construct: whole, on cells; also called CHOK1-LILRB1

[2] = molecular target: T2, human LILRB2 expressed on CHOK1 cells (CHOK1-hLILRB2) (human, UniProt Q8N423 22-597); assay: FACS binding to CHOK1-hLILRB2 cells
T2 construct: whole, on cells; also called CHOK1-LILRB2

[3] = molecular target: T1, human LILRB1 expressed on CHOK1 cells …; assay: cell based RBA, flow cytometry: blocking of HLA-G binding to CHOK1-hLILRB1 cells
[4] = molecular target: T2, human LILRB2 expressed on CHOK1 cells …; assay: cell based RBA, flow cytometry: blocking of HLA-G binding to CHOK1-hLILRB2 cells
cynomolgus LILRB2 = cynomolgus LILRB2 (cynomolgus); assay: Octet off-rate ranking;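 also: antibody dissociation rate constants against cynomolgus LILRB2 plus human LILRB1, LILRB2, LILRA1 and LILRA2, measured on an Octet instrument to rank binding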
Sequence of cynomolgus LILRB2 (cynomolgus) (chain, as listed by the source): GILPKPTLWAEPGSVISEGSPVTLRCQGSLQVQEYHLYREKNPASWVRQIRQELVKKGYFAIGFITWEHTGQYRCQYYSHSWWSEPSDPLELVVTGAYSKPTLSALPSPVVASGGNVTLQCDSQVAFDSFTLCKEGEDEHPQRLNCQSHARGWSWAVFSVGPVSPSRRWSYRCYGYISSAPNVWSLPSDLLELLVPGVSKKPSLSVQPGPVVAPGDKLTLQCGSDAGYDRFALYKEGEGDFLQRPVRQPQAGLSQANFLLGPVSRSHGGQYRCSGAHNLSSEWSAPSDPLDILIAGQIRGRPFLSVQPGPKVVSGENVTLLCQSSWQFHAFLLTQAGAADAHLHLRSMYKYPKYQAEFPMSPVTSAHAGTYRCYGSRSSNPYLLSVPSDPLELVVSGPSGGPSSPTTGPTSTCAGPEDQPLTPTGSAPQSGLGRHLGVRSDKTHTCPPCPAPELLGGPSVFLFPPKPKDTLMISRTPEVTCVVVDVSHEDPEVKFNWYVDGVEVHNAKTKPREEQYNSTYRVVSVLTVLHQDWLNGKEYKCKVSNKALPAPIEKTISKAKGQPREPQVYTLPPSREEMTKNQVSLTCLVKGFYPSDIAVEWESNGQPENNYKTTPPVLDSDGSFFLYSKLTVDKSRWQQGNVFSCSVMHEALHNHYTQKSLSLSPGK
Excerpt: Binding affinity of anti-LILRB1 and anti-LILRB2 antibodies against human LILRB1, LILRB2, LILRA1, LILRA2 and cynomolgus LILRB2 was ranked by measuring dissociation rate constant (Kdis) using the Octet system.

T1 sequence (Q8NHL6 24-650): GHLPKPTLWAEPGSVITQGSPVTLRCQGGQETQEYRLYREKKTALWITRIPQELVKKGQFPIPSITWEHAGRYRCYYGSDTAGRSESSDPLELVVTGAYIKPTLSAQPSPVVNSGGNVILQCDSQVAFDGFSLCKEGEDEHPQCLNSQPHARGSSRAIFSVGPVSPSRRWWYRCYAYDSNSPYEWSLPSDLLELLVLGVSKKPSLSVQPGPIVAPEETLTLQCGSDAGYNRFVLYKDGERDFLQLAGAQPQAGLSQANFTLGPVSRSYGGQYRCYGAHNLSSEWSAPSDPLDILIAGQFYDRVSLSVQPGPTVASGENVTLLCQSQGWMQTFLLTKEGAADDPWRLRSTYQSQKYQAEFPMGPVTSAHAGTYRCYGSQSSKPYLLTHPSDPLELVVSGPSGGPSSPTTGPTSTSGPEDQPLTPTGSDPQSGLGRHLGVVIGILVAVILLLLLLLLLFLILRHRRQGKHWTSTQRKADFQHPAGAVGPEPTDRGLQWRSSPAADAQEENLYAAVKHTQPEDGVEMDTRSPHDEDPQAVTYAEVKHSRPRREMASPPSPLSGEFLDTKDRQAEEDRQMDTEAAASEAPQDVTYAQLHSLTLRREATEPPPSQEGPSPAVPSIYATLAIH
T2 sequence (Q8N423 22-597): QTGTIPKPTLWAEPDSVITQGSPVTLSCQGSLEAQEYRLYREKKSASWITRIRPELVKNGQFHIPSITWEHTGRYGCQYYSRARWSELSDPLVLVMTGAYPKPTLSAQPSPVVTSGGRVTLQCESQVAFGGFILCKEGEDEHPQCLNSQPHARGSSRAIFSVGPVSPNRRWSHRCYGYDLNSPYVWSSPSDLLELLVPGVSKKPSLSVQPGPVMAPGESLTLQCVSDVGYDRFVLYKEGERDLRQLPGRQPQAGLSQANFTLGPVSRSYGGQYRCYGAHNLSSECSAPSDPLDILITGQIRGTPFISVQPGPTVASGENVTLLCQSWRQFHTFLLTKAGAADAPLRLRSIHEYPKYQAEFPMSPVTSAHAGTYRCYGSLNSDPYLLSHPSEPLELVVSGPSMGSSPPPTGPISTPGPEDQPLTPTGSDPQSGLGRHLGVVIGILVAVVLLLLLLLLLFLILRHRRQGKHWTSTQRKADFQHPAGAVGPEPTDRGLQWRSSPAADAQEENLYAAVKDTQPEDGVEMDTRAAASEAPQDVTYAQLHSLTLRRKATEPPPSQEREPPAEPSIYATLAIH

Binder | EC50 [1] [nM] | binding result [2] | EC50 [3] [nM] | Top Inhibition [3] [%] | EC50 [2] [nM] | EC50 [4] [nM] | Top Inhibition [4] [%] | koff (cynomolgus LILRB2) [s⁻¹]
3C1 (antibody, human IgG4, kappa, V domains shown) VH: EVQLVESGGGLVQPGGSLRLSCAASGFTFSDYDMHWVRQATGKGLEWVATIDTAGDTYYPDSVRGRFTISRENAKNSLSLQMNSLRAGDTAVYFCARDVPGTGFDHWGQGTLVTVSS VL: SSELTQDPAVSVALGQTVRITCQGDSLRSYYESWYQQKPGQAPVLVIYGKNNRPSGIPDRFSGSISGNTASLTITGTQAEDEADYYCNSRDNSGDHWVFGGGTRLTVLG | 0.62 | no binding | 0.94 | 79.6 |  |  |  | 
LK-RB2-15 (antibody, human IgG4 S228P, kappa, V domains shown) VH: QIQLVQSGPELKKPGETVKISCKASGYTFTTYGMSWVKQAPGKGLKWMGWINVYSGVPTYADDFKGRFAFSLEISASTAYLQINNLKDEDTATYFCARRKDYSGHCFDYWGQGTTLTVSS VL: DIVLTQSPASLAVSLGQRATFSCRASESVDTYGISFMHWYQQKPGQPPKLLIYRASNLESGIPARFSGSGSRTDFTLTINPVETDDVATYYCQQSKKEPYTFGGGTKLEIKR | 31.4 |  | 4.18 | 70.8 | 0.16 | 0.162 | 77.5 | 
LK-RB2-29 (antibody, human IgG4 S228P, kappa, V domains shown) VH: QVQLQQSGAELARPGASVKLSCKASGYTFTSYWMQWVKQRPGQGLEWIGAIYPGDGDTRYTQKFKGKATLTADKSSSTAYMQLSSLASEDSAVYYCARGYYGSSYADYFDYWGQGTTLTVSS VL: DIQMTQSPASLSASVGETVTITCRASGNIHNYLAWYQQKQGKSPQLLVYNAKTLADGVPSRFSGSGSGTQYSLKINSLQPEDFGSYYCQHFWSTPPTFGGGTKLEIKR |  |  |  |  |  |  |  | 0.000215
15G8 (antibody, human IgG4 S228P, kappa, V domains shown) VH: DVQLQGSGPGLVKPSETLSLTCSVTGYSITSGYYWNWIRQFPGKKLEWMGYISYDGSNNYNPSLKNRITISRDTSKNQFSLKLNSVTAADTATYYCAHGYSYYYAMDAWGQGTSVTVSS VL: DIQMTQSPSSLSASVGDRVTITCRTSQDISNYLNWYQQKPGKAVKLLISYTSRLHSGVPSRFSGSGSGTDYTLTISSLQPEDFATYYCQQGNTLPTFGQGTKLEIKR | 0.57 | no binding | 0.69 | 82.5 |  |  |  | 
LK-RB2-27 (antibody, human IgG4 S228P, kappa, V domains shown) VH: DVKLVESGGGLVKPGGSLKLSCAASGFTFSSYSMSWVRQTPEKRLEWVATISTGGSYTYYPDSVKGRFTISRDNAKNTLYLQMSSLKSEDTAMFYCTRGSMDYWGQGTSVTVSS VL: DILMTQSPSSMSVSLGDTVSITCHASQDISSNIGWLQQKPGNSFKGLIYHGTNLEDGVPSRFSGSGSGADYSLTISSLESEDFADYYCVQYAQFPYTFGGGTKLEIKR |  |  |  |  |  |  |  | 0.00109
LK-RB2-28 (antibody, human IgG4 S228P, kappa, V domains shown) VH: DVKLVESGGGLVKPGGSLKLSCAASGFTFSSYSMSWVRQTPEKRLEWVATISTGGSYTYYPDSMKGRFTISRDNAKNTLYLQMSSLKSEDTAMFYCTRGSMDYWGQGTSVTVSS VL: DILMTQSPSSMSVSLGDTVSIACHASQDISSNIGWLQQKPGNSFKGLIYHGTNLEDGVPSRFSGSGSGADYSLTISSLESEDFADYYCVQYAQFPYTFGGGTKLEIKR |  |  |  |  |  |  |  | 0.00114
LK-RB2-26 (antibody, human IgG4 S228P, kappa, V domains shown) VH: QVQLKESGPGLVAPSQSLSITCTVSGFSLTSYGVHWVRQPPGKGLEWLGVIWAGGSTDYNAAFISRLNISKDISESQVFFRMNSLQTDDTAMYYCARDQMVRSAMDYWGQGTSVTVSS VL: DIQMIQSPSSMFASLGDRVSLSCRASQGIRGNLDWYQQKPGGTIKLLIYSTSNLNSAVPSRFSGSGSGSDYSLTISNLESEDFADYYCLQRNASPYTFGGGTKLEIKR |  |  |  |  |  |  |  | 0.00184
LK-RB2-24 (antibody, human IgG4 S228P, kappa, V domains shown) VH: QIQLVQSGPEVKKPGETVKISCKASGYTFTTYGMSWVKQAPGKGLKWMGWLNIYSGVPAYADDFKGRFAFSLESSASTAYLQINNLKNEDTATYFCARRENYDGYGMDYWGQGTSVTVSS VL: DIVMTQSPATLSVTPGDRVSLSCRASQSISDYLHWYQQKSHESPRLLIKYASQSISGIPSRFSGSGSGSDFTLSINSVEPEDVGVYYCQNGHSFPYTFGGGTKLEIKR | 0.848 |  | 1.7 | 93.4 | 0.18 | 0.0956 | 74.1 | 
